Experimental data from article PMC12700558, “Aggregation shifts amyloid-β peptides from synaptogenic to synaptotoxic” (The Journal of Clinical Investigation, 2025).

Columns and labels:
human neurons [1] = assay: NLS-TdTomato cytotoxicity assay (cytoplasmic leakage of NLS-TdTomato)
Experimental: The MTT assay employs yellow tetrazolium dye that is reduced to a purple formazan crystal by viable cells with active metabolism ([21]). Because it measures metabolic activity in all cells, this assay serves as a broad cytotoxicity read out for the entire glia/neuron coculture system. The amount of formazan produced is then measured because it is directly proportional to the number of viable cells ([21]) (Figure 1B and Supplemental Figure 1A). The nuclear localization TdTomato assay, conversely, enables monitoring of cellular stress by tracking the localization of fluorescent TdTomato fused to a nuclear localization signal. Under healthy conditions, the nuclear localization signal directs the NLS-TdTomato to the nucleus. When toxicity in a cell causes a reduction in ATP levels, NLS-TdTomato leaks out of the nucleus into the cytoplasm, which we scored as an index of toxicity (Figure 1, C and D, and Supplemental Figure 1, B–D). Because the reporter is expressed only in neurons, this assay specifically assesses neurotoxicity within the coculture. We developed this assay because it can be performed on live cells and reflects decreases in ATP levels in these cells. […]
To assess neuronal cytotoxicity induced by Aβ peptides, we employed a novel Td-Tomato cytotoxicity assay that we developed. […] Neurons displaying cytoplasmic Td-Tomato were counted as indicators of cytotoxicity. […]

human neurons [2] = assay: Quantification of synaptic puncta (Synapsin-1 and PSD95), confocal; assay type: cell-based; settings: chronic treatment, DIV45
Experimental: Mature human iN cells were washed 3 times with PBS (Gibco) and fixed with 4% PFA (Electron Microscopy Science) and 4% sucrose (Sigma-Aldrich) in PBS for 10 minutes at room temperature. Cells were then washed three times with PBS, followed by permeabilization and blocking with 0.25% Triton-X-100 (Sigma-Aldrich), 2.5% bovine serum albumin (BSA) (GeminiBio) and 2,5% NGS (Sigma-Aldrich) for one hour at room temperature. Incubation with primary antibodies was performed overnight at 4°C in the corresponding blocking buffer ([41]). For endosome analyses, fixing solution contained only 4% PFA and the permeabilization was performed separately before the blocking step, using 0.1% Triton-X-100. Primary Antibodies used include rabbit monoclonal anti-Synapsin-1 (Yenzym antibodies, clone YZ6078, 1:1000 dilution), mouse monoclonal anti-PSD95 (Thermo Fisher Scientific, 7E3-1B8, 1:250 dilution), chicken polyclonal anti-MAP2 (EnCor, CPCA-MAP2, 1:1000 dilution), mouse monoclonal 6E10 (BioLegend, SIG-39320, 1:1000), rabbit monoclonal anti-Synaptophysin (homemade, P580 ([26])), and rabbit monoclonal anti-EEA1(Cell Signaling, C45B10, 1:1000 dilution). Cells were washed 3 times with PBS and incubated for 1 hour at room temperature with Alexa conjugated secondary antibodies: goat anti-chicken Alexa 647, goat anti-rabbit Alexa 546, goat anti-rabbit Alexa 488, and goat anti-mouse Alexa 488, all 1:500. […]

human neurons [3] = assay: Neuronal cell density (NLS-TdTomato-positive nuclei); assay type: cell-based
Experimental: The prepared aliquots of Aβ peptides were added directly to the culture media during each routine half-media change. To support optimal neuronal development, maturation, and function, while preserving essential factors released by neurons and glia, fresh media supplemented with Aβ was provided every other day until DIV10, and then once weekly until DIV45. […] During each media change, the Aβ peptides were introduced into the cultures to achieve final concentrations of 0.2 μM, 0.15 μM, 0.1 μM, 0.05 μM, 0.025 μM, and 0.005 μM. For scrambled and inverted sequence peptides, only the 0.2 μM and 0.025 μM concentrations were tested. At DIV6, we initiated a half-media replacement protocol in which 50% of the old culture medium was carefully removed and replaced with fresh medium containing Aβ peptides at twice the intended final concentration. […] For example, to achieve a final concentration of 0.2 μM, the fresh medium added at DIV6 was prepared at 0.4 μM, yielding a uniform 0.2 μM concentration after mixing with the peptide-free half. Starting from DIV8 and onward, subsequent half-media changes replaced half of the existing medium with fresh medium containing Aβ at the same target concentration (e.g., 0.2 μM), since the remaining half already contained approximately that amount. This approach was designed to mimic a chronic treatment regimen, allowing us to investigate the long-term effects of the peptides on synapse formation and neuronal activity under sustained exposure conditions.
To assess neuronal cytotoxicity induced by Aβ peptides, we employed a novel Td-Tomato cytotoxicity assay that we developed. Human neurons were infected at DIV 6 with a lentiviral vector carrying a plasmid encoding nuclear localization signal (NLS)-TdTomato under the control of the human Synapsin-1 promoter. The use of the Synapsin promoter ensured neuron-specific expression of Td-Tomato. […] When the neurons had reached full maturation, cells were examined for Td-Tomato localization. Neurons displaying cytoplasmic Td-Tomato were counted as indicators of cytotoxicity. […] For Aβ experiments, imaging and scoring were performed at DIV45, immediately after the final peptide exposure. Data were quantified by calculating the density of neurons with cytoplasmic Td-Tomato, normalized to control cultures, and presented graphically. To assess cell viability, the number of Td-Tomato–positive nuclei, which represent surviving neurons, was counted, normalized to control values, and reported in graphs.

[4] = system: human neurons cocultured with mouse glia; assay: Quantification of 6E10-positive Aβ aggregates in human neuron cultures; assay type: cell-based; settings: for Density of 6E10-positive structures (number of structures per area of field of view) / Size of 6E10-positive structures (area fraction of the field of view occupied by aggregates): human neurons/mouse glia, DIV25
Experimental: Mature human iN cells were washed 3 times with PBS (Gibco) and fixed with 4% PFA (Electron Microscopy Science) and 4% sucrose (Sigma-Aldrich) in PBS for 10 minutes at room temperature. Cells were then washed three times with PBS, followed by permeabilization and blocking with 0.25% Triton-X-100 (Sigma-Aldrich), 2.5% bovine serum albumin (BSA) (GeminiBio) and 2,5% NGS (Sigma-Aldrich) for one hour at room temperature. Incubation with primary antibodies was performed overnight at 4°C in the corresponding blocking buffer ([41]). For endosome analyses, fixing solution contained only 4% PFA and the permeabilization was performed separately before the blocking step, using 0.1% Triton-X-100. Primary Antibodies used include rabbit monoclonal anti-Synapsin-1 (Yenzym antibodies, clone YZ6078, 1:1000 dilution), mouse monoclonal anti-PSD95 (Thermo Fisher Scientific, 7E3-1B8, 1:250 dilution), chicken polyclonal anti-MAP2 (EnCor, CPCA-MAP2, 1:1000 dilution), mouse monoclonal 6E10 (BioLegend, SIG-39320, 1:1000), rabbit monoclonal anti-Synaptophysin (homemade, P580 ([26])), and rabbit monoclonal anti-EEA1(Cell Signaling, C45B10, 1:1000 dilution). Cells were washed 3 times with PBS and incubated for 1 hour at room temperature with Alexa conjugated secondary antibodies: goat anti-chicken Alexa 647, goat anti-rabbit Alexa 546, goat anti-rabbit Alexa 488, and goat anti-mouse Alexa 488, all 1:500. Coverslips were washed once with PBS and once with water to remove salts before mounting, then were mounted using Fluoromount (with DAPI) (Thermo Fisher Scientific, 00-4959-52) on glass slides. All images were taken with the Nikon A1RSi confocal microscope (Nikon Instruments Inc.) for analysis of synaptic puncta using Nikon Analysis Software.
To quantify the density and size of 6E10-immunopositive aggregates, we acquired high-resolution confocal images at 60x magnification using a Nikon Eclipse Ti microscope (Nikon, Japan). All fluorescence parameters, including laser power and detector settings, were held constant throughout image acquisition to ensure comparability across samples. We then processed and analyzed the resulting images with Nikon Analysis Software, employing standardized thresholds for object detection. For analyses conducted in human neurons, the density of 6E10-positive aggregates was determined by calculating the number of discrete objects per unit area of the imaged field. In contrast, for analyses in primary neurons, we recorded the total number of discrete objects within each field. In both cases, we measured particle size as the fraction of the total field occupied by 6E10-positive signals, using a binary region of interest encompassing the entire field of view. This approach allowed for consistent, unbiased quantification of both the distribution and relative size of immunofluorescent aggregates under different experimental conditions.

[5] = 0.1uM chronic, biological replicate 1
[6] = 0.1uM chronic, biological replicate 2
[7] = 0.1uM chronic, biological replicate 3
[8] = 0.2uM chronic, biological replicate 1
[9] = 0.2uM chronic, biological replicate 2
[10] = 0.2uM chronic, biological replicate 3

-.DAEFRHDSGYEVHHQKLVFFAGDVGSNKGAIIGLMVGGVVI.A [Aβ42^arctic]
Concentration at which neurotoxicity became apparent, NLS-TdTomato assay (human neurons [1]): greater than or equal to 0.1 μM
Loss of synapses (human neurons [2]; high concentrations): greater than 55%
Effect on synapse numbers (in words) (human neurons [2]; lower concentrations): did not increase synapse numbers
Neuronal cell density, values normalized to Ctrl (Figure 1E) (human neurons [3]; 0.005 uM chronic DIV6-DIV45, DIV45, biological replicate 1): 0.9504
Neuronal cell density, values normalized to Ctrl (Figure 1E) (human neurons [3]; 0.005 uM chronic DIV6-DIV45, DIV45, biological replicate 2): 0.943
Neuronal cell density, values normalized to Ctrl (Figure 1E) (human neurons [3]; 0.005 uM chronic DIV6-DIV45, DIV45, biological replicate 3): 0.9651
Neuronal cell density, values normalized to Ctrl (Figure 1E) (human neurons [3]; 0.05 uM chronic DIV6-DIV45, DIV45, biological replicate 1): 0.9651
Neuronal cell density, values normalized to Ctrl (Figure 1E) (human neurons [3]; 0.05 uM chronic DIV6-DIV45, DIV45, biological replicate 2): 0.9896
Neuronal cell density, values normalized to Ctrl (Figure 1E) (human neurons [3]; 0.05 uM chronic DIV6-DIV45, DIV45, biological replicate 3): 1.07
Neuronal cell density, values normalized to Ctrl (Figure 1E) (human neurons [3]; 0.1 uM chronic DIV6-DIV45, DIV45, biological replicate 1): 0.9054
Neuronal cell density, values normalized to Ctrl (Figure 1E) (human neurons [3]; 0.1 uM chronic DIV6-DIV45, DIV45, biological replicate 2): 0.8702
Neuronal cell density, values normalized to Ctrl (Figure 1E) (human neurons [3]; 0.1 uM chronic DIV6-DIV45, DIV45, biological replicate 3): 1.014
Neuronal cell density, values normalized to Ctrl (Figure 1E) (human neurons [3]; 0.2 uM chronic DIV6-DIV45, DIV45, biological replicate 1): 0.8081
Neuronal cell density, values normalized to Ctrl (Figure 1E) (human neurons [3]; 0.2 uM chronic DIV6-DIV45, DIV45, biological replicate 2): 0.8351
Neuronal cell density, values normalized to Ctrl (Figure 1E) (human neurons [3]; 0.2 uM chronic DIV6-DIV45, DIV45, biological replicate 3): 0.7942
Decrease of neuronal cell numbers (human neurons [3]; higher concentrations, chronic exposure, DIV45): approximately 15%
Density of 6E10-positive structures (number of structures per area of field of view) [4, 5]: 0.009289
Size of 6E10-positive structures (area fraction of the field of view occupied by aggregates) [4, 5]: 0.02043
Density of 6E10-positive structures (number of structures per area of field of view) [4, 6]: 0.01336
Size of 6E10-positive structures (area fraction of the field of view occupied by aggregates) [4, 6]: 0.034
Density of 6E10-positive structures (number of structures per area of field of view) [4, 7]: 0.01613
Size of 6E10-positive structures (area fraction of the field of view occupied by aggregates) [4, 7]: 0.04071
Density of 6E10-positive structures (number of structures per area of field of view) [4, 8]: 0.03615
Size of 6E10-positive structures (area fraction of the field of view occupied by aggregates) [4, 8]: 0.05614
Density of 6E10-positive structures (number of structures per area of field of view) [4, 9]: 0.04641
Size of 6E10-positive structures (area fraction of the field of view occupied by aggregates) [4, 9]: 0.04714
Density of 6E10-positive structures (number of structures per area of field of view) [4, 10]: 0.06233
Size of 6E10-positive structures (area fraction of the field of view occupied by aggregates) [4, 10]: 0.04014
6E10-positive Aβ aggregates in treated human neurons (in words) ([4]; chronic exposure, immunofluorescence with 6E10 antibody): significant 6E10-positive Aβ aggregates
